Drawing on paper PMC3685266, this text covers Kd and stoichiometry N for ten substances.

The stoichiometry N is a count of units in the complex or per binding partner.

The target of test [1] is SecY_(268Fl)EG (E. coli) (UniProt P0AGA2). The test can be described thus: other fluorescence titration; fluorescence quench of 5 nM SecY_(268Fl)EG, 1 mM p[NH]ppA, 20 mM Tris/HCl pH 8, 130 mM NaCl, 10% glycerol, 2 mM MgCl2, 0.03% C12E9; SecA titrated 0-1 μM; no DTT; one-site fit with linear phase.
Test [2] shares this target. In words: other fluorescence titration; fluorescence quench of 5 nM SecY_(268Fl)EG, 1 mM p[NH]ppA, 20 mM Tris/HCl pH 8, 130 mM NaCl, 10% glycerol, 2 mM MgCl2, 0.03% C12E9; SecA titrated 0-1 μM; with 10 mM DTT; one-site fit with linear phase.
Test [3] addresses SecA_(D337C/K482C), uncross-linked, clamp released from the closed state with 10 mM DTT (E. coli) (UniProt P10408). The test can be described thus: SEC; Superose 6 10/300 GL, 20 mM Tris/HCl pH 7.5, 100 mM KCl, with or without 10 mM DTT; column calibrated with gel-filtration standards. On the technique in general: SEC sorts molecules by how far they enter the pores of the column.
Test [4] addresses SecA_(Δcys), SecA without cysteine residues (E. coli) (UniProt P10408). Described as above.
In test [5] the target is preformed SecA_(Δcys)–SecYEG membrane-bound complex (E. coli) (UniProt P10408). In words: steady-state ATPase activity titration; 80 nM SecA with 1.08 μM SecYEG reconstituted into E. coli polar lipids in TKM buffer, 1 mM ATP, increasing purified proOmpA_(Δcys); no DTT; Kd from a ligand-binding fit.
Test [6] concerns the target preformed SecA_(D337C/K482C) (released with DTT)–SecYEG membrane-bound complex (E. coli) (UniProt P10408). In words: steady-state ATPase activity titration; 80 nM SecA with 1.08 μM SecYEG reconstituted into E. coli polar lipids in TKM buffer, 1 mM ATP, increasing purified proOmpA_(Δcys); with 10 mM DTT; Kd from a ligand-binding fit.
In test [7] the target is preformed SecA_(D337C/E806C) (released with DTT)–SecYEG membrane-bound complex (E. coli) (UniProt P10408). The description is as above.
In test [8] the target is preformed SecA_(Δcys)–SecYEG membrane-bound complex (E. coli) (UniProt P10408). The description is as above.
Test [9] addresses SecA_(D337C/E806C), cross-linked (clamp open) (E. coli) (UniProt P10408). In words: steady-state ATPase activity titration; 80 nM SecA in TKM buffer, 1 mM ATP, increasing vesicles reconstituted with purified SecYEG; without proOmpA; no DTT; Kd from a ligand-binding fit.
The target of test [10] is SecA_(Δcys) (E. coli) (UniProt P10408). The test is described as above.
Test [11] concerns the target SecA_(D337C/K482C), cross-linked (clamp closed) (E. coli) (UniProt P10408). The description is as above.
For test [12], the target named is SecA_(Δcys) (E. coli) (UniProt P10408). The test can be described thus: steady-state ATPase activity titration; 0.15 μM SecA in TKM buffer, 1 mM ATP, increasing detergent-solubilised SecYEG, in the presence of 40 μM cardiolipin (CL); with 10 mM DTT; apparent Kd from a ligand-binding fit.
Test [13] deals with SecA_(D337C/K482C), released with 10 mM DTT (E. coli) (UniProt P10408). The test is described as above.
The target of test [14] is SecA_(D337C/E806C), released with 10 mM DTT (E. coli) (UniProt P10408). The description is as above.
Test [15] addresses SecA_(Δcys) (E. coli) (UniProt P10408). The test can be described thus: steady-state ATPase activity titration; 80 nM SecA in TKM buffer, 1 mM ATP, increasing vesicles reconstituted with purified SecYEG; in the presence of 0.6 μM proOmpA_(Δcys); with 10 mM DTT; Kd from a ligand-binding fit.
Test [16] concerns the target SecA_(D337C/K482C), released with 10 mM DTT (E. coli) (UniProt P10408). The test is described as above.
For test [17], the target named is SecA_(D337C/E806C), released with 10 mM DTT (E. coli) (UniProt P10408). The description is as above.
Test [18] concerns the target SecA_(Δcys) (E. coli) (UniProt P10408). The test can be described thus: steady-state ATPase activity titration; 80 nM SecA in TKM buffer, 1 mM ATP, increasing vesicles reconstituted with purified SecYEG; without proOmpA; with 10 mM DTT; Kd from a ligand-binding fit.
In test [19] the target is SecA_(D337C/K482C), released with 10 mM DTT (E. coli) (UniProt P10408). The description is as above.
For test [20], the target named is SecA_(D337C/E806C), released with 10 mM DTT (E. coli) (UniProt P10408). Described as above.
The target in test [21] is SecA_(D337C/E806C), cross-linked (clamp open) (E. coli) (UniProt P10408). In words: steady-state ATPase activity titration; 80 nM SecA in TKM buffer, 1 mM ATP, increasing vesicles reconstituted with purified SecYEG; in the presence of 0.6 μM proOmpA_(Δcys); no DTT; Kd from a ligand-binding fit.
The target of test [22] is SecA_(Δcys) (E. coli) (UniProt P10408). The test is described as above.
The target in test [23] is SecA_(D337C/K482C), cross-linked (clamp closed) (E. coli) (UniProt P10408). The test is described as above.
In test [24] the target is SecA_(Δcys) (E. coli) (UniProt P10408). The test can be described thus: steady-state ATPase activity titration; 0.15 μM SecA in TKM buffer, 1 mM ATP, increasing detergent-solubilised SecYEG, in the presence of 40 μM cardiolipin (CL); no DTT; apparent Kd from a ligand-binding fit.
Test [25] concerns the target SecA_(D337C/E806C), cross-linked (clamp open) (E. coli) (UniProt P10408). In words: steady-state ATPase activity titration; 0.15 μM SecA in TKM buffer (pH 7.5), 1 mM ATP, 0.03% C12E9, 25°C, increasing detergent-solubilised SecYEG; no DTT; apparent Kd from a ligand-binding fit.
In test [26] the target is SecA_(Δcys) (E. coli) (UniProt P10408). Described as above.
The target in test [27] is SecA_(D337C/K482C), cross-linked (clamp closed) (E. coli) (UniProt P10408). The test is described as above.
Test [28] deals with SecA_(Δcys) (E. coli) (UniProt P10408). The test can be described thus: steady-state ATPase activity titration; 0.15 μM SecA in TKM buffer (pH 7.5), 1 mM ATP, 0.03% C12E9, 25°C, increasing detergent-solubilised SecYEG; with 10 mM DTT; apparent Kd from a ligand-binding fit.
The target of test [29] is SecA_(D337C/K482C), released with 10 mM DTT (E. coli) (UniProt P10408). The description is as above.
Test [30] concerns the target SecA_(D337C/E806C), released with 10 mM DTT (E. coli) (UniProt P10408). The description is as above.
For test [31], the target named is SecA_(D337C/E806C), uncross-linked, clamp released from the open state with 10 mM DTT (E. coli) (UniProt P10408). In words: SEC; Superose 6 10/300 GL, 20 mM Tris/HCl pH 7.5, 100 mM KCl, with or without 10 mM DTT; column calibrated with gel-filtration standards.

In the case of “SecA_(Δcys) (from UniProt P10408 1-901) (enzyme)”, the Kd with SecY_(268Fl)EG (E. coli) [1] is 18.4 nM; with SecY_(268Fl)EG (E. coli) [2] it was 20.6 nM.
For “SecA_(D337C/K482C), uncross-linked, clamp released from the closed state with 10 mM DTT (from UniProt P10408 1-901) (enzyme)”, the stoichiometry N in test [3] was found to be 2.
Take “SecA_(D337C/E806C), cross-linked (clamp open) (from UniProt P10408 1-901) (enzyme)”: the Kd in the test with SecY_(268Fl)EG (E. coli) [1] was found to be 60.9 nM.
As to “SecA_(Δcys), SecA without cysteine residues (from UniProt P10408 1-901) (enzyme)”, in test [4], the stoichiometry N came out at 2.
In the test with SecY_(268Fl)EG (E. coli) [1], “SecA_(D337C/K482C), cross-linked (clamp closed) (from UniProt P10408 1-901) (enzyme)” yielded a Kd of 28.6 nM.
As to “SecA_(D337C/E806C), released with 10 mM DTT (from UniProt P10408 1-901) (enzyme)”, in the test with SecY_(268Fl)EG (E. coli) [2], the Kd turned out to be 59.5 nM.
Substance “SecA_(D337C/K482C), released with 10 mM DTT (from UniProt P10408 1-901) (enzyme)” showed a Kd in the test with SecY_(268Fl)EG (E. coli) [2] of 118 nM.
Regarding “proOmpA_(Δcys) (from UniProt P0A910 22-346) (natural protein)”, the Kd was 500 nM in [5], 240 nM in [6], 350 nM in test [7] and 780 nM in test [8].
With “SecYEG (from UniProt P0AGA2 1-443; P0AG96 1-127; P0AG99 1-110) (complex)”, the Kd in test [9] is 650 nM; with SecA_(Δcys) (E. coli) [10], 1130 nM; in [11] it was 29 nM; in the test with SecA_(Δcys) (E. coli) [12], 5.6 nM; in test [13], 8.8 nM; in [14], 6.5 nM. The Kd came to 190 nM with SecA_(Δcys) (E. coli) [15]; 130 nM in [16]; 130 nM in test [17]; 1110 nM with SecA_(Δcys) (E. coli) [18]; 340 nM in test [19]; 650 nM in test [20]. The Kd amounted to 170 nM in test [21]; 260 nM with SecA_(Δcys) (E. coli) [22]; 25 nM in test [23]; 3.7 nM with SecA_(Δcys) (E. coli) [24]; 5900 nM in test [25]; 7600 nM in the test with SecA_(Δcys) (E. coli) [26]. Moreover, the Kd in [27] is 15 nM; with SecA_(Δcys) (E. coli) [28] it was 7800 nM; in [29] it was 6300 nM; in test [30], 6000 nM.
Take “SecA_(D337C/E806C), uncross-linked, clamp released from the open state with 10 mM DTT (from UniProt P10408 1-901) (enzyme)”: the stoichiometry N in test [31] amounted to 2.
